This series deals with the molecule itself. In words: cryo-EM structure.

B1: pyocin R2 sheath protein (natural protein)
chain: MSFFHGVTVTNVDIGARTIALPASSVIGLCDVFTPGAQASAKPNVPVLLTSKKDAAAAFGIGSSIYLACEAIYNRAQAVIVAVGVETAETPEAQASAVIGGISAAGERTGLQALLDGKSRFNAQPRLLVAPGHSAQQAVATAMDGLAEKLRAIAILDGPNSTDEAAVAYAKNFGSKRLFMVDPGVQVWDSATNAARNAPASAYAAGLFAWTDAEYGFWSSPSNKEIKGVTGTSRPVEFLDGDETCRANLLNNANIATIIRDDGYRLWGNRTLSSDSKWAFVTRVRTMDLVMDAILAGHKWAVDRGITKTYVKDVTEGLRAFMRDLKNQGAVINFEVYADPDLNSASQLAQGKVYWNIRFTDVPPAENPNFRVEVTDQWLTEVLDVA
Take B1: the binding result was “binds”.

B2: pyocin R2 tube protein (natural protein)
chain: MIPQTLTNTNLFIDGVSFAGDVPSLTLPKLAVKTEQYRAGGMDAPVSIDMGLEAMEAKFSTNGARREALNFFGLADQSAFNGVFRGSFKGQKGASVPVVATLRGLLKEVDPGDWKAGEKAEFKYAVAVSYYKLEVDGREVYEIDPVNGVRAINGVDQLAGMRNDLGL
The term stoichiometry N denotes a count of units in the complex or per binding partner. Regarding B2, the “stoichiometry N” value came to 6.

These data come from PMC4445970 (Nature structural & molecular biology, 2015).
